Biological target: GCN4pLI-HCN2(CNBD) tetramer (human)
Assay: SEC; GCN4pLI-HCN2(CNBD) in solution; column and buffer not told for this run

## GCN4pLI-HCN2(CNBD) tetramer
  stoichiometry N: 4
